± gives the standard deviation of the averaged measurements.
Test system: ATP
Assay: switch fluorescence ratio, 500 uM ATP over buffer (Cy3 cluster intensity, sum of 5 cycles each) (fold (ratio)); higher = stronger signal-on switching upon ATP binding; sequences stand for … in TCGTCGGCAGCGTCAGATGTGTATAAGAGACAGTTTTTTTTTTTTTTTTTTTTTTTTT…TC
Settings: aptamer strand: ATP DNA aptamer (quencher-CACCTGGGGGAGTATTGCGGAGGAAGG + anchor), 100 nM annealed; ATP concentration: 500 uM
In short: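 Cy3-labelled switching-strand clusters on a modified Illumina MiSeq flow-cell were annealed to 100 nM quencher-labelled ATP aptamer and imaged first in selection buffer, then after 15 min with 500 uM ATP at 22 °C. NaOH stripping and re-annealing separated each of five buffer/ATP cycles, and clusters outside 100-1000 RFU were excluded. The fluorescence ratio sums target-cycle Cy3 intensity over buffer-cycle Cy3 intensity per cluster and averages it per switch-domain sequence.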
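Further: ATP exposure 15 min at 22 °C before imaging.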

CGATCAAAAC
switch fluorescence ratio: 1.26 ± 0.31

AAGGGGACTC
switch fluorescence ratio: 0.974 ± 0.04

ATTTGGTACC
switch fluorescence ratio: 0.977 ± 0.043

GTTATCGGCG
switch fluorescence ratio: 1.01 ± 0.022

TGTCGCGTAT
switch fluorescence ratio: 0.992 ± 0.013

AAATGGTAGG
switch fluorescence ratio: 0.996 ± 0.0086

ATAGTTTGGA
switch fluorescence ratio: 0.947 ± 0.017

GTGAGGTCGG
switch fluorescence ratio: 0.968 ± 0.015

ATGGAATGAG
switch fluorescence ratio: 0.998 ± 0.012

CTATTTGGCA
switch fluorescence ratio: 1.0113 ± 4.2e-05

GGAGCTTGCA
switch fluorescence ratio: 1.02 ± 0.023

TACAGTGTTT
switch fluorescence ratio: 0.975 ± 0.025

TTCTGTCTGT
switch fluorescence ratio: 1.05 ± 0.052

AAGGGGTCT
switch fluorescence ratio: 0.992 ± 0.024

AGTGAGAATC
switch fluorescence ratio: 1.036 ± 0.0046

GGATTTTTTA
switch fluorescence ratio: 1.006 ± 1.6e-05

ATGCATTGTT
switch fluorescence ratio: 1 ± 0.027

GCTATTTTCG
switch fluorescence ratio: 0.99 ± 0.023

GGGCTTGTGC
switch fluorescence ratio: 0.987 ± 0.071

CCTGGGTGGG
switch fluorescence ratio: 1.12 ± 0.065

ATAGATGGGG
switch fluorescence ratio: 1.01 ± 0.018

AGCATGGTGG
switch fluorescence ratio: 1.02 ± 0.046

AGCACGGGAA
switch fluorescence ratio: 1.03 ± 0.03

GTGAATGCTG
switch fluorescence ratio: 0.938 ± 0.048

TCGTTGACGT
switch fluorescence ratio: 0.985 ± 0.04

GGGAACGTTA
switch fluorescence ratio: 1.05 ± 0.035

AGCGTTCAGC
switch fluorescence ratio: 0.9849 ± 0.0026

TGTTGATAGC
switch fluorescence ratio: 0.992 ± 0.037

GACTCTACGG
switch fluorescence ratio: 1.05 ± 0.032

AGCTCGCCAC
switch fluorescence ratio: 1.05 ± 0.046

CGCTTCGGGG
switch fluorescence ratio: 0.9735 ± 0.0082

GCCCACCACA
switch fluorescence ratio: 1.08 ± 0.028

TCGGGTGGTA
switch fluorescence ratio: 1.05 ± 0.097

TTTTTTTCCC
switch fluorescence ratio: 1.01 ± 0.018

CGGGGTACTT
switch fluorescence ratio: 1.06 ± 0.056

ATTAGCAGCA
switch fluorescence ratio: 1.05 ± 0.025

AAAAGTATTA
switch fluorescence ratio: 1.01 ± 0.025

GGTACTACCG
switch fluorescence ratio: 1.03 ± 0.044

TGGGGTTCAT
switch fluorescence ratio: 0.985 ± 0.025

AGGGAGGGAG
switch fluorescence ratio: 0.97 ± 0.035

GGAAATGGGC
switch fluorescence ratio: 0.97 ± 0.042

CCAAAATTG
switch fluorescence ratio: 1.02 ± 0.018

TTAGTCGGAG
switch fluorescence ratio: 0.981 ± 0.01

AGGTGCGGAA
switch fluorescence ratio: 1.0109 ± 0.00064

TCGACGGGCG
switch fluorescence ratio: 1.03 ± 0.02

ACTAGAGCCA
switch fluorescence ratio: 0.982 ± 0.011

TGTCACCAGT
switch fluorescence ratio: 1.02 ± 0.016

CGTAGGAGTC
switch fluorescence ratio: 0.963 ± 0.15

GATAGCGCAG
switch fluorescence ratio: 1.01 ± 0.063

GGATGGGTTG
switch fluorescence ratio: 1.09 ± 0.19

ATTTGAGGGT
switch fluorescence ratio: 0.986 ± 0.021

ACATGTGACG
switch fluorescence ratio: 0.98236 ± 0.00039

AGGGCTTTCC
switch fluorescence ratio: 1.075 ± 0.007

ATGGGTGCTT
switch fluorescence ratio: 1.01 ± 0.039

GAGGACTGTA
switch fluorescence ratio: 1.09 ± 0.025

TGGTGATTGT
switch fluorescence ratio: 1.02 ± 0.017

CATATAATTG
switch fluorescence ratio: 0.976 ± 0.014

ATTAGAATGT
switch fluorescence ratio: 1.02 ± 0.023

TCAGAATTGG
switch fluorescence ratio: 1.01 ± 0.028

CTCCTAAAGA
switch fluorescence ratio: 1.05 ± 0.013

ATTAGTGTTG
switch fluorescence ratio: 0.956 ± 0.022

GGGGGGTTCA
switch fluorescence ratio: 1.01 ± 0.026

ACTAGGCAAT
switch fluorescence ratio: 1.96 ± 0.27

TTTGTAAGTG
switch fluorescence ratio: 0.988 ± 0.018

TGGGGGTCCC
switch fluorescence ratio: 0.991 ± 0.017

TGACGCCTGA
switch fluorescence ratio: 1.02 ± 0.022

GGATGGCATG
switch fluorescence ratio: 0.979 ± 0.039

CCAGAACCGG
switch fluorescence ratio: 1.01 ± 0.0022

TTATGTTAGT
switch fluorescence ratio: 1.01 ± 0.056

CGGTAAGGGC
switch fluorescence ratio: 0.966 ± 0.038

GGGCATTGGG
switch fluorescence ratio: 0.996 ± 0.043

AGTGTAATAT
switch fluorescence ratio: 1 ± 0.023

GCGTCAGGCG
switch fluorescence ratio: 0.971 ± 0.026

TGGGATGGGA
switch fluorescence ratio: 1 ± 0.024

TGCAGGGAGT
switch fluorescence ratio: 1.04 ± 0.037

GTTGCATTCA
switch fluorescence ratio: 1.01 ± 0.033

AAGTGGGCCC
switch fluorescence ratio: 0.983 ± 0.013

AGAATCGGCA
switch fluorescence ratio: 0.997 ± 0.031

TTATCTAGCT
switch fluorescence ratio: 1.03 ± 0.023

CAATCCTTTT
switch fluorescence ratio: 1.01 ± 0.018

TGGTTCAGCC
switch fluorescence ratio: 0.9868 ± 0.0033

AGTTGTTTCG
switch fluorescence ratio: 1.016 ± 0.0023

ATTGATGT
switch fluorescence ratio: 1.0234 ± 0.00096

GCGAAAAGAT
switch fluorescence ratio: 0.982 ± 0.018

CTCAGTAGGC
switch fluorescence ratio: 1.13 ± 0.066

TAGATGCAGT
switch fluorescence ratio: 1.04 ± 0.042

GATGTATAAA
switch fluorescence ratio: 1.0015 ± 0.00099

ACAGGCTTTT
switch fluorescence ratio: 1 ± 0.018

TGAAAGGATT
switch fluorescence ratio: 1.02 ± 0.025

AGTTAGTGT
switch fluorescence ratio: 0.978 ± 0.051

CATATCGGAA
switch fluorescence ratio: 1.187 ± 0.0077

TGTTCGAGGC
switch fluorescence ratio: 1.03 ± 0.013

TAGAGCGTAT
switch fluorescence ratio: 1 ± 0.033

CTGTGGCTTT
switch fluorescence ratio: 1.016 ± 0.0096

ATGCATACTG
switch fluorescence ratio: 1.03 ± 0.022

GATGGCAGCA
switch fluorescence ratio: 1.021 ± 0.0086

GTGGTTTGTG
switch fluorescence ratio: 1 ± 0.011

TTTTTGTCTG
switch fluorescence ratio: 0.9814 ± 0.0091

TAAACTTTTG
switch fluorescence ratio: 0.9786 ± 0.0039

ATAATGTTAC
switch fluorescence ratio: 1.09 ± 0.029

TTTTATTGTA
switch fluorescence ratio: 0.999 ± 0.032

GGTTAGGAAA
switch fluorescence ratio: 0.998 ± 0.021

CACTTCTGGC
switch fluorescence ratio: 1.03 ± 0.011

TTTATATATA
switch fluorescence ratio: 1.005 ± 0.0095

TTTTCTCTAG
switch fluorescence ratio: 1.01 ± 0.055

AAGTATTGTT
switch fluorescence ratio: 1 ± 0.019

CCGCGGGGAG
switch fluorescence ratio: 1.1 ± 0.041

ATGGAAAGGT
switch fluorescence ratio: 1.009 ± 0.0074

CGACTTGGTA
switch fluorescence ratio: 0.9766 ± 0.0011

CAGGGCGTTT
switch fluorescence ratio: 1.01 ± 0.028

CATTTATTAG
switch fluorescence ratio: 0.964 ± 0.0063

CTTAAGGGAT
switch fluorescence ratio: 1.0149 ± 0.00017

CTCTAAATGT
switch fluorescence ratio: 1.11 ± 0.016

ATGTCTTTTG
switch fluorescence ratio: 1.03 ± 0.022

AAAGAAACAT
switch fluorescence ratio: 1.07 ± 0.08

CAGTGACGGT
switch fluorescence ratio: 1.03 ± 0.021

TTCCTGGCAT
switch fluorescence ratio: 1.45 ± 0.42

GTGGTTAAGA
switch fluorescence ratio: 0.9961 ± 0.002

GAAACGTAAT
switch fluorescence ratio: 1.19 ± 0.037

GGTCCTGTCG
switch fluorescence ratio: 1.03 ± 0.042

CGGGGGTATG
switch fluorescence ratio: 0.994 ± 0.034

TTAGGGCTTG
switch fluorescence ratio: 0.992 ± 0.039

CGTGGTCGTC
switch fluorescence ratio: 0.991 ± 0.03

ATCATTTGGC
switch fluorescence ratio: 0.981 ± 0.068

AAAATGGAAG
switch fluorescence ratio: 0.9997 ± 0.0056

AAGGTTCTAG
switch fluorescence ratio: 0.9895 ± 0.0026

TGTGTCAGGG
switch fluorescence ratio: 1.01 ± 0.022

CATCAATGTG
switch fluorescence ratio: 0.997 ± 0.052

CCGGGGGTCC
switch fluorescence ratio: 1.02 ± 0.019

GCTGTTCACG
switch fluorescence ratio: 1.01 ± 0.014

GTTGTAATGG
switch fluorescence ratio: 1.01 ± 0.049

GCGGTCGGTA
switch fluorescence ratio: 1.03 ± 0.038

CCTGTTTTCG
switch fluorescence ratio: 1.06 ± 0.05

GGTTAAAGAG
switch fluorescence ratio: 0.9868 ± 0.008

TAGAATAGGT
switch fluorescence ratio: 0.978 ± 0.011

ATATGTCGGT
switch fluorescence ratio: 0.963 ± 0.013

AAAATTTTAT
switch fluorescence ratio: 0.989 ± 0.026

TTTGAGATGG
switch fluorescence ratio: 0.99 ± 0.024

TTGAAGCGGT
switch fluorescence ratio: 1.09 ± 0.11

TTTCCGGGGT
switch fluorescence ratio: 1.28 ± 0.31

GCATGTCGGG
switch fluorescence ratio: 1.03 ± 0.015

TTTACAGATA
switch fluorescence ratio: 1 ± 0.018

ATGGTTAAGG
switch fluorescence ratio: 0.9812 ± 0.0085

GACTTTAGCG
switch fluorescence ratio: 1.03 ± 0.023

TGTATTTTGG
switch fluorescence ratio: 0.984 ± 0.029

CTAGGTTCGC
switch fluorescence ratio: 1.01 ± 0.012

TTAAAACTTT
switch fluorescence ratio: 1.02 ± 0.025

GGGTGAAGGA
switch fluorescence ratio: 0.989 ± 0.042

GATGGCTTGG
switch fluorescence ratio: 0.987 ± 0.018

GGAGTTAGGG
switch fluorescence ratio: 0.977 ± 0.011

TAGAATTGAG
switch fluorescence ratio: 0.984 ± 0.022

TTATTGGTCC
switch fluorescence ratio: 0.989 ± 0.045

CGTTTCCCGG
switch fluorescence ratio: 0.992 ± 0.031

TGGGTTTATG
switch fluorescence ratio: 1 ± 0.03

TCATAAAGTT
switch fluorescence ratio: 0.994 ± 0.034

AGGGGCTTGT
switch fluorescence ratio: 0.979 ± 0.024

TAAGGCTTCG
switch fluorescence ratio: 0.96 ± 0.039

— the supplement of paper PMC10126150
